Measured values from patent publication US20190381169A1, “PHARMACEUTICAL COMBINATIONS FOR IMMUNOTHERAPY” (Technische Universitat Dresden, priority 2014, published 2019).
“Also recorded” adds a separate entry of the source.

Experiments:
[1] = target: T1, p75^NTR (Mus musculus, UniProt Q9Z0W1); test: Cytokine secretion and TLR9 expression of CpG stimulated murine PDCs; type: cell-based
T1 construct: endogenous in cells; host or cells: murine plasmacytoid dendritic cells differentiated in vitro from bone marrow with Flt3-L (p75NTR+/+ wildtype; p75NTR-/- as control)
T1 sequence (Q9Z0W1 32-427): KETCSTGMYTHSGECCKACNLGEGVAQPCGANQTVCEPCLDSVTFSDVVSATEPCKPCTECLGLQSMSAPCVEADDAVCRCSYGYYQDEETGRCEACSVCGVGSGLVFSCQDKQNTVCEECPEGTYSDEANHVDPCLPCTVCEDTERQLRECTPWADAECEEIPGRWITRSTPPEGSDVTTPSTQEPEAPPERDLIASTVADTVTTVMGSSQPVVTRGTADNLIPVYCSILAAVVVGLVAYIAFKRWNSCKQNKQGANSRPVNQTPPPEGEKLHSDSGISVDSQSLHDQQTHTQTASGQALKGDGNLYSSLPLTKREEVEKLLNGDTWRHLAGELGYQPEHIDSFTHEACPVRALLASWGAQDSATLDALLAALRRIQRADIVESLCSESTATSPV
Procedure: Murine PDC were generated in vitro as follows: Bone marrow cells were isolated by flushing femur and tibia of mice. Erythrocytes were lysed using ACK buffer. Remaining cells were washed and cultured at a density of 2×10^6 cells per ml in RPMI 1640 medium supplemented with 10% FCS, 1 mM sodium pyruvat, 2 mM L-glutamine, 100 IU per ml penicillin, 100 μg/ml streptomycin, 10 mM HEPES buffer and 0.1 mM β-mercaptoethanol. To differentiate bone marrow cells into PDCs, 100 ng/ml Flt3-L (fms-like tyrosine kinase 3-ligand) was added to the cells. After 8 days of culture PDCs were enriched by removing the CD11b^+ fraction using CD11b Microbeads (Miltenyi Biotec) according to manufacturer instructions. Dead cells were excluded using Dead cell removal Kit (Miltenyi Biotec). Purity of PDCs was evaluated by flow cytometry (CD11b^−CD11c^+B220^+Siglec-H^+).
Murine PDC express the low affinity neurotrophin receptor p75^NTR but not the high affinity neurotrophin receptors (FIGS. 3A, 3B). […] Furthermore, only p75^NTR expressing PDC (p75^NTR+/+) increased the CPG-ODNs Class B induced secretion of the Th2 response inducing cytokines IL-6 and TNFα in the presence of NGF (FIG. 3D).

[2] = target: T1, p75^NTR; test: Th1 cytokine secretion in co-culture of murine PDCs and OTII T-cells with ovalbumin peptide (CBA); type: cell-based; conditions: OTII T-cells with p75^NTR+/+ PDCs and ovalbumin peptide 323-339, NGF 100 ng/ml, compared to p75^NTR−/− PDCs
Procedure: Murine T-cells were isolated from the OTII mouse strain expressing mouse alpha-chain and beta-chain T-cell receptor specific for chicken ovalbumin 323-339, using the CD+ T-cell isolation kit (Miltenyi Biotec).
Both, murine PDCs and T-cells were cultured overnight with or without the chicken ovalbumin peptide 323-339 in the presence or absence of NGF (100 ng/ml). The concentrations of T-cell secreted Th1-cytokines IL-2 and IFNγ in the supernatant were determined by using the CBA kit (BD Bioscience) following manufacturer's instruction with modification in data analysis using Microsoft Excel. […] In the presence of p75^NTR+/+ PDCs presenting the ovalbumin peptide (OVA) to the T-cells, T-cells secrete the Th1 cytokines IFNγ (FIG. 5A) and IL-2 (FIG. 5B).

[3] = target: T1, p75^NTR; test: Proliferation and cytokine secretion of OT-II CD4+ or OT-I CD8+ T-cells co-cultured with murine PDCs; type: cell-based
From the text: Murine T-cells were isolated either from OT-II mouse strain expressing ovalbumin peptide specific T-cell receptors on CD4+ T-cells or from OT-I mouse strain expressing ovalbumin peptide specific T-cell receptors on CD8+CTLs using the CD8+ T-cell isolation kit (Miltenyi Biotec).

[4] = target: T1, p75^NTR; conditions: in vivo
[5] = co-culture with PDCs, NGF present
[6] = co-culture with p75^NTR+/+ PDCs, NGF added, compared to p75^NTR−/− PDCs

NGF: Nerve growth factor, best characterized neurotrophin; natural p75^NTR agonist (R&D Systems)
IFNα secretion ([1]; CPG-ODNs Class A (CpG A) stimulated p75^NTR+/+ PDCs, increasing NGF levels): decreasing levels; also recorded: reduced | expression of TLR9 ([1]; CpG A stimulated p75^NTR+/+ PDCs, NGF added): reduced expression; also recorded: negatively influenced | CPG-ODNs Class B induced secretion of IL-6 and TNFα ([1]; p75^NTR+/+ PDC in presence of NGF): increased | CpG-induced increase in TLR9 expression level ([1]; p75^NTR+/+ PDCs, CpG A or CpG B, presence of NGF): significantly decreased | TLR9 expression of p75^NTR−/− PDCs ([1]; p75^NTR−/− PDCs, CpG A or CpG B stimulation, NGF added): does not display a NGF induced alteration of TLR9 expression; also recorded: showed now difference in TLR9 expression | secretion of Th1 cytokines IFNγ and IL-2 [2]: reduced secretion | cytokine secretion of CD8+ T-cells (CTLs) from OT-I strain [3, 5]: secreted less cytokines | proliferation of CD8+ T-cells (CTLs) from OT-I strain [3, 5]: reduced proliferation | cytokine secretion of CD4+ T-cells from OT-II strain [3, 6]: increased | proliferation of CD4+ T-cells from OT-II strain [3, 6]: increased | type I diabetes incidence without CpG B [4]: no NGF dependent effect | time of onset of PDC induced type I diabetes (diabetes free time) ([4]; iv): occurred at a significant later stage; also recorded: significantly prolonged
